Source: patent publication US20180194862A1 (AbbVie / Abbott, published 2018)
Changes are numbered by the printed parent chain.

T1: mouse CD40 (mouse, UniProt P27512 20-193, limits assumed)
T1 construct: also called murine CD40
T1 sequence (looked up): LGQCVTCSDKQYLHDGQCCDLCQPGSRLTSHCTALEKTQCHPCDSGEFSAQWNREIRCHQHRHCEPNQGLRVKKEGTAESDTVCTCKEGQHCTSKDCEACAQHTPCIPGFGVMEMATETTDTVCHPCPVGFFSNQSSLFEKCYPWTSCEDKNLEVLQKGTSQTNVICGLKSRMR

T2: dog CD40 (dog, UniProt Q7YRL5 21-194, limits assumed)
T2 sequence (looked up): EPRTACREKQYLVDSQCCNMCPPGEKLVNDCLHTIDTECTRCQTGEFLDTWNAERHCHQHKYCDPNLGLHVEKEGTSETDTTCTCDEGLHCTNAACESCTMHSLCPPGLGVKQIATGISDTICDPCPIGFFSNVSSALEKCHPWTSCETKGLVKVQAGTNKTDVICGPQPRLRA

B1: HuAb17 (antibody, V domains shown)
VH: EVQLVQSGAEVKEPGASVKVSCKASGDTFNRYYVHWARQAPGQGLEWMGIINPSGVSTTYAQKFQGRVTMTRDTPTNTVYMELGSLRPEDTAVYFCAESRGSGYNYFAMDVWGQGTLVTVSS
VL: SYELTQPPSVSVSPGQTADITCSGDKLGDKYASWYQQKPGQSPVLVIYQDNRRPSGIPERFSGSNSGNTATLTISGTQAMDEADYYCQAWDSDTYVFGPGTKVTVL
notes: fully human antibody
B2: HuAM12 (antibody, V domains shown)
VH: EVQLVQSGAEVKKPGASVKVSCKASGDTFHRYYVHWVRQAPGQGLEWMGIINPSGVSTTYAQKFQGRVTMTRDTSTSTVYMELSSLRSEDTAVYYCAEVRGSGFNYFGMDVWGQGTLVTVSS
VL: B1 VL with D19S, P99T
notes: fully human antibody
B3: HuAM5 (antibody, V domains shown)
VH: B2 VH with H30N, F104Y, G108A
VL: B1 VL with D19S, P99T
notes: fully human antibody
B4: HuAM16 (antibody, V domains shown)
VH: B2 VH with H30N, H35Q, V99T
VL: B1 VL with D19S, P99T
notes: fully human antibody
B5: HuAM14 (antibody, V domains shown)
VH: B2 VH with H30K, V34M
VL: B1 VL with D19S, P99T
notes: fully human antibody
B6: HuAM13 (antibody, V domains shown)
VH: B2 VH with H30N, H35Q, V99T
VL: B1 VL with D19S, A89V, P99T
notes: fully human antibody
B7: HuAM11 (antibody, V domains shown)
VH: B2 VH with H30K, V34M
VL: B1 VL with D19S, A89V, P99T
notes: fully human antibody
B8: huAb6-2 (antibody, human IgG1, V domains shown)
VH: EVQLVQSGAEVKKPGSSVKVSCKASGYTFTSYWMHWVRQAPGQGLEWIGNIDPSNGETHYNQKFKDRVTITVDKSTSTAYMELSSLRSEDTAVYYCARERIYYSGSTYDGYFDVWGQGTTVTVSS
VL: DIQLTQSPSFLSASVGDRVTITCSASSSLSYMHWYQQKPGKSPKRWIYDTSKLASGVPSRFSGSGSGTEYTLTISSLQPEDFATYYCQQWSSNPWTFGGGTKVEIK
notes: human IgG1, kappa
B9: huAb6-1 (antibody, human IgG1, V domains shown)
VH: B8 VH with V68A, I70L
VL: B8 VL
notes: human IgG1 heavy chain constant region, kappa light chain constant region
B10: AD166.4.4 (antibody, V domains shown)
VH: QVQLQQSGAELMKPGASAKLSCKATGYTFTGYWIQWVKQRPGHGLEWIGEILPGGDHTKYNEKFRGKATFTSDTSSNTVYMQLSSLTTEDSAIYYCARVGGDYWGQGTTLTVSS
VL: DVVMTQTPLSLPVSLGDQASISCRSSQSLVNSNENTYLHWYLQKPGQSPKLLIYKVFNRYSGVPDRFSGSGSGTDFTLKISRVEAEDLGVYFCFQSTHVPWTFGGGTKLEIK
notes: mouse hybridoma antibody; also called muAb2
B11: AD163.9.3 (antibody, V domains shown)
VH: QVQLQQPGAELVKPGASVKMSCKASGYTFTSYWITWVKQRPGQGLEWIGEINPGSGSTNYNEKFKSKATLTVDTSSSTAYMQLSSLTSEDSAVYYCARNRGTGDYWGQGTTLTVSS
VL: B10 VL with N31H, N33Y, E34G, L51F, F57S, Y60I, F67L, A85P, F94S, W101Y
notes: mouse hybridoma antibody; also called muAb1
B12: AD175.14.11 (antibody, V domains shown)
VH: EVQLQQSGPELVKPGASVKISCKASGYTFTDYYMNWVKQSHGKSLEWIGDINPNNGGTSYNQKFKGKATLTVDKSSSTAYMELRSLTSEDSAVYYCARRGGLGRGTYALDYWGQGTSVTVSS
VL: DIQMTQTTSSLSASLGDRVTISCRASQDISNYLNWYQQKPDGTVKPLIYYTSRLHLGVPSRFSGSGSGTDYSLTISNLEQEDIATYFCQQGNTLPLTFGAGTKLELK
notes: mouse hybridoma antibody; also called muAb3
B13: AD163.10.7 (antibody, V domains shown)
VH: LVQPGGSLSLSCAASGFTFSDYYMSWVRQPPGKALEWLGFIRNKANGYTTEFSASVKGRFTISRDNSQSILYLQMNALRAEDSATYYCARYGGLRQGWYFDVWGTGTTVTVSS
VL: B12 VL with S30R, P46L, L56S, N92K, L96W, A100G, T102S, L106M
notes: mouse hybridoma antibody; also called muAb4
B14: AD163.27.12 (antibody, V domains shown)
VH: QVQLQQPGAELVRPGSSVKLSCKASGYTFTSYWMHWVKQRPIQGLEWIGNIDPSNGETHYNQKFKDKATLTVDKSSSTAYMQLSSLTSEDSAVYYCARERIYYSGSTYDGYFDVWGTGTTVTVSS
VL: QIVLTQSPAIMSASPGEKVTMTCSASSSLSYMHWYQQKSGTSPKRWIYDTSKLASGVPARFSGSGSGTSYSLTISSMEGEDGATYYCQQWSSNPWTFGGGTKLEIK
notes: mouse hybridoma antibody; also called muAb7
B15: AD164.76.3 (antibody, V domains shown)
VH: DVQLQESGPGLVKPSQSLSLTCSVTGYSITSNYYWNWIRQFPGNKLEWMGYIRYDGSNNYNPSLKNRISITRDTSKNQFFLRLNSVTTEDTATYYCTRLDYWGQGTTLTVSS
VL: DAVMTQTPLSLPVSLGDQASISCRSSQSLENSNGNTFLNWFLQKPGQSPQLLIYRISNRFSGVPDRFSGSGSGTDFTLKISRVEAEDLGVYFCLQVTHVPFTFGSGTKLEIK
notes: mouse hybridoma antibody; also called muAb10; AD164.76.2
B16: AD165.1.2 (antibody, V domains shown)
VH: DVQLQESGPGLVEPSQSLFLTCSVTGYSITTNYNWNWIRQFPGNKLEWMGYIRHDGTNNYNPSLKNRISIIRDTPKNQFFLKLNSVTTEDTAIYFCTRLDYWGQGTSVTVSS
VL: B15 VL with N33Y, K44R, I56V, S61C, V90I, F101Y, S105G
notes: mouse hybridoma antibody; also called muAb5
B17: AD164.14.6 (antibody, V domains shown)
VH: B15 VH with R82K, T97A
VL: B15 VL with S32T, I56V
notes: mouse hybridoma antibody; also called muAb9

biological target: T3, mesothelin on cells (endogenous on SN12C, OVCAR3, SW1990); HEK293 cells expressing cell-surface human … (human, UniProt Q13421 296-598); test: FACS, OVCAR3 (CA125+)
T3 construct: whole, on cells; also called cell-surface MSLN
T3 sequence (Q13421 other isoform, or with tags, fused parts or gaps limits assumed): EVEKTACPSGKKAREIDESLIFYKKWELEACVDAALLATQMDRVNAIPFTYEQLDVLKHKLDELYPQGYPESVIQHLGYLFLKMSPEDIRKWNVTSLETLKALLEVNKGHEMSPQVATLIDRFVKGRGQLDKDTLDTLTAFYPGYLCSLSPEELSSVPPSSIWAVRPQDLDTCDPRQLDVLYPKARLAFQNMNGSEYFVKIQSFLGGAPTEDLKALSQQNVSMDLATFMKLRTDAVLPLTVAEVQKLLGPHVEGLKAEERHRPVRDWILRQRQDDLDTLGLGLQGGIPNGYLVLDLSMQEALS
Method: (§1) The binding of anti-mesothelin affinity matured variants was measured by FACS on the ovarian cancer cell line OVCAR3, the pancreatic cancer cell line SW1990, and the renal cancer cell line SN12C. Both OVCAR3 and SW1990 express CA125, but CA125 expression on SN12C cells was not detected.

EC50 [mg/L] | Maximum binding (MFI) | Binder
2.9 | 1640 | B1
0.8 | 3270 | B2
0.7 | 3690 | B3
0.6 | 3610 | B4
0.7 | 3370 | B5
0.7 | 3670 | B6
0.7 | 3430 | B7

biological target: T3, mesothelin on cells (endogenous on …); test: FACS, SN12C (CA125-)
Method: as §1

EC50 [mg/L] | Maximum binding (MFI) | Binder
2.74 | 11000 | B1
0.09 | 9630 | B2
0.09 | 10000 | B3
0.08 | 9540 | B4
0.09 | 9800 | B5
0.09 | 9870 | B6
0.04 | 7530 | B7

biological target: T4, human mesothelin (human, UniProt Q13421 296-580, limits assumed); test: SPR
T4 construct: also called Human MSLN
T4 sequence (Q13421 other isoform, or with tags, fused parts or gaps limits assumed): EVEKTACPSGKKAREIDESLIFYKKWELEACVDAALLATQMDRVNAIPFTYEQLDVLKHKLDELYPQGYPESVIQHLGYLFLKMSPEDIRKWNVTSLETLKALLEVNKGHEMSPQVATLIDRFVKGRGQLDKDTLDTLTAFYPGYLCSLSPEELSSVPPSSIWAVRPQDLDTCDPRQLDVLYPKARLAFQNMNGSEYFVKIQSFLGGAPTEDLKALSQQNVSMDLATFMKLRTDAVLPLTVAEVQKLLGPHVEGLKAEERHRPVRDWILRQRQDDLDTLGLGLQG

Kd [nM] | koff [s⁻¹] | kon [M⁻¹ s⁻¹] | Binder
2.6 | 3.2e-05 | 12000 | B1
≤ 0.46 | ≤ 1e-05 | 23000 | B3
0.46 | 2.4e-05 | 52000 | B4

biological target: T5, cynomolgus mesothelin (cynomolgus); test: SPR
T5 construct: also called cynoMSLN; Cyno MSLN

Kd [nM] | koff [s⁻¹] | kon [M⁻¹ s⁻¹] | Binder
8.1 | 0.00013 | 15000 | B1
4.9 | 0.0001 | 20000 | B3
4.1 | 0.00019 | 47000 | B4

biological target: T6, human CD40 on cells (HEK293 stable transfectants, HEK-Blue CD40 cells, human B cells, monocytic cells, … (human, UniProt P25942 21-277)); test: cell-based or functional assay
T6 sequence (P25942 21-277 limits assumed): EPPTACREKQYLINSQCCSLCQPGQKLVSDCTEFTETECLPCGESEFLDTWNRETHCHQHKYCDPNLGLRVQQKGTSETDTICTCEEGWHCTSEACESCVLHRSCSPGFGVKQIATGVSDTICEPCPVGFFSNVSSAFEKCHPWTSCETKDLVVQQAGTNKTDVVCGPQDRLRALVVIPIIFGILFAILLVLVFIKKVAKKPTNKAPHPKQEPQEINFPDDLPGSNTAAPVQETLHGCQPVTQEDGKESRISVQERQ

Maximal activation (OD655) | NF-κB activation EC50, HEK293 CD40 NFκB reporter cells [mg/L] | Binder
0.2 | 1.21 | B8
0.26 | 1.09 | B9

biological target: T6, human CD40 on cells (HEK293 stable …); test: cell-based or functional assay; remark: another data set of the same source

Monocyte activation (THP1-Xblue, OD655) [OD655] | moDC activation (IL-12p70) [pg/mL] | Binder
0.24 | 0 | B10
0.19 | 2220 | B11
0.2 | 0 | B12
0.16 | 1320 | B13
0.12 | 1510 | B14
0.16 | 770 | B15
0.14 | 720 | B16
0.15 | 878 | B17

biological target: T7, soluble form of the extracellular domain of human CD40 (Creative BioMart) (human, UniProt P25942 21-193); test: SPR, Ab captured
T7 construct: Bought
T7 sequence (P25942 21-193 limits assumed): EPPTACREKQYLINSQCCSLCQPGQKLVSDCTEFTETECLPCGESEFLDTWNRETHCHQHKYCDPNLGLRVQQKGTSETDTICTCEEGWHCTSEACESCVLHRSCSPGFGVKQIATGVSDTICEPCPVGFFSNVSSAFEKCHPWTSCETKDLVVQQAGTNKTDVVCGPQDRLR
Method: CD40 binding kinetics was analyzed by surface plasmon resonance assay with a Biacore T200 instrument (Table 1-5). Briefly, a goat anti-mouse Fc antibody (Pierce) or goat anti-human Fc (Pierce) was immobilized on a CM5 sensor chip, followed by capture of the anti-CD40 antibodies on the test surface. Subsequently, the soluble form of the extracellular domain of human CD40 (Creative BioMart) or cynomolgus (cyno) CD40 (Creative BioMart) was injected, and the binding and dissociation were measured.

Kd [nM] | koff [s⁻¹] | kon [M⁻¹ s⁻¹] | Binder
3.5 | 0.0096 | 2.8e+06 | B10
35 | 0.016 | 470000 | B11
170 | 0.012 | 69000 | B12
76 | 0.17 | 2.3e+06 | B13
64 | 0.0048 | 75000 | B14
13 | 0.034 | 2.6e+06 | B15
0.88 | 0.002 | 2.3e+06 | B16
19 | 0.052 | 2.8e+06 | B17

biological target: T1, mouse CD40; test: FACS

binding result | Binder
no binding | B8
no binding | B9

biological target: T2, dog CD40; test: FACS

binding result | Binder
no binding | B8
no binding | B9
